The nature of this series: label from the status in PepcDB records.

The values that follow come from a protein production outcome set (Wang et al. 2014).
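Further: failed if final PepcDB status was selected cloned or expressed and not failed if soluble or beyond.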

Regarding “MNLLIKINPVTRIIALMVLTTPLLLSLDVMSAAIALVATIILAPFAGVTWKMLLKRGWMLFLMAPVAALSMALYGRPDGKEYFSFLLIHVTDNSLALAAAIGLRVLAIGLPVVVLIARIDPTDLGDGLAQLLKLPERFVIGAVAGSRLMTLFREDWYSMSRARRARGIADQGKIKHFFTMTFGLLVLSLRRGSKLATAMEARGFGRTTGRTWARESTVGARDLVLILVCAAISAIALTVSIQTGFFKFLGT”, the protein production result is reported as “failed”.

Consider “MNLLVTSSLGVLLHLVVLCQADDHSELLVNTKSGKVMGTRVPVLSSHISAFLGIPFAEPPVGNMRFRRPEPKKPWSGVWNASTYPNNCQQYVDEQFPGFSGSEMWNPNREMSEDCLYLNIWVPSPRPKSTTVMVWIYGGGFYSGSSTLDVYNGKYLAYTEEVVLVSLSYRVGAFGFLALHGSQEAPGNVGLLDQRMALQWVHDNIQFFGGDPKTVTIFGESAGGASVGMHILSPGSRDLFRRAILQSGSPNCPWASVSVAEGRRRAVELGRNLNCNLNSDEELIHCLREKKPQELIDVEWNVLPFDSIFRFSFVPVIDGEFFPTSLESMLNSGNFKKTQILLGVNKDEGSFFLLYGAPGFSKDSESKISREDFMSGVKLSVPHANDLGLDAVTLQYTDWMDDNNGIKNRDGLDDIVGDHNVICPLMHFVNKYTKFGNGTYLYFFNHRASNLVWPEWMGVIHGYEIEFVFGLPLVKELNYTAEEEALSRRIMHYWATFAKTGNPNEPHSQESKWPLFTTKEQKFIDLNTEPMKVHQRLRVQMCVFWNQFLPKLLNATACDGELSSSGTSSSKGIIFYVLFSILYLIF”, for which the protein production entry is “not failed”. Turning to “MNLPKKVRLVEVGPRDGLQNEKQPIEVADKIRLVDDLSAAGLDYIEVGSFVSPKWVPQMAGSAEVFAGIRQRPGVTYAALAPNLKGFEAALESGVKEVAVFAAASEAFSQRNINCSIKDSLERFVPVLEAARQHQVRVRGYISCVLGCPYDGDVDPRQVAWVARELQQMGCYEVSLGDTIGVGTAGATRRLIEAVASEVPRERLAGHFHDTYGQALANIYASLLEGIAVFDSSVAGLGGCPYAKGATGNVASEDVLYLLNGLEIHTGVDMHALVDAGQRICAVLGKSNGSRAAKALLAKA”, the protein production result is “not failed”. For the sequence “MNLPPNPVIARGRGRGRKPNNVEANRGFAPSLGQKSDPSHSEGNQASGGNGGGGDAQVGPSIEKSSLSAVQMHKSEGDPRGSVRGRRLITDLVYSRPPGMTSKKGVVGTHITVQANYFKVLKRPNWTIYQYRVDFTPDVEATRLRRSFLY”, the protein production result was “failed”. As to “MNLQNWKLSEYVCAVENLSYTEFFRIIEYANDAGIPVNFVTNGTLITEEFVKKLSELNIGSVQVSLDGSKPEIMDRLRGNGIFHRAINSIKRLIDYGINTSVAFCATRINIRDFPNVVELASKLGVFEVRSMYFVPETEAHIKLAPSESQYKELLQWIYDN”, the protein production entry is listed as “failed”. The value for “MNLVETAQAIKTGKVSLGIELGSTRIKAVLITDDFNTIASGSYVWENQFVDGTWTYALEDVWTGIQQSYTQLAADVRSKYHMSLKHINAIGISAMMHGYLAFDQQAKLLVPFRTWRNNITGQAADELTELFDFNIPQRWSIAHLYQAILNNEAHVKQVDFITTLAGYVTWKLSGEKVLGIGDASGVFPIDETTDTYNQTMLTKFSQLDKVKPYSWDIRHILPRVLPAGAIAGKLTAAGASLLDQSGTLDAGSVIAPPEGDAGTGMVGTNSVRKRTGNISVGTSAFSMNVLDKPLSKVYRDIDIVMTPDGSPVAMVHVNNCSSDINAWATIFHEFAARLGMELKPDRLYETLFLESTRADADAGGLANYSYQSGENITKIQAGRPLFVRTPNSKFSLPNFMLTQLYAAFAPLQLGMDILVNEEHVQTDVMIAQGGLFRTPVIGQQVLANALNIPITVMSTAGEGGPWGMAVLANFACRQTAMNLEDFLDQEVFKEPESMTLSPEPERVAGYREFIQRYQAGLPVEAAAGQAIKYLEHHHHHH” was “not failed”; that for “MNLVQAFLLSFTAFFAIMNPFANLPMFVSLTADNNRKEVDAIARLAFIVATVIVALFALLGNYIFSIFGINLSALRIMGGIILGLIGYHMIQGNVSPIQHDPKQSVKDSINSNNTDVAISPLAMPVLAGPGTIATTMNLSSSTNPFIVISAFVVLSVITYFIFIYGEQIMAKLGNNIMNVITKLMGLILATIGVRMLIMGVQVAFHW” was “failed”; that for “MNLVQDKVTIITGGTRGIGFAAAKIFIDNGAKVSIFGETQEEVDTALAQLKELYPEEEVLGFAPDLTSRDAVMAAVGQVAQKYGRLDVMINNAGITSNNVFSRVSEEEFKHIMDINVTGVFNGAWCAYQCMKDAKKGVIINTASVTGIFGSLSGVGYPASKASVIGLTHGLGREIIRKNIRVVGVAPGVVNTDMTNGNPPEIMEGYLKALPMKRMLEPEEIANVYLFLASDLASGITATTVSVDGAYRP” was “not failed”.
